Data from article PMC5774749, “Coiled-coil formation of the membrane-fusion K/E peptides viewed by electron paramagnetic resonance” (PLoS ONE, 2018).
*: point of attachment. MTSL = CC1(C)C=C(CS*)C(C)(C)N1[O]

B1: K (peptide)
peptide: Ac-KIAALKEKIAALKEKIAALKEGW-NH2
notes: designed coiled-coil zipper peptide K; printed as Ac-(KIAALKE)3-GW-NH2, the repeat written out three times; unlabelled peptide added to E-SL in the room-temperature cw-EPR; the details of these samples are in S1 Text; also called K-peptide; peptide K; source: synthetic peptide
B2: SL-K (peptide)
peptide: Ac-C(MTSL)KIAALKEKIAALKEKIAALKEGW-NH2
SMILES: CC[C@H](C)[C@H](NC(=O)[C@H](CCCCN)NC(=O)[C@H](CSSCC1=CC(C)(C)N([O])C1(C)C)NC(C)=O)C(=O)N[C@@H](C)C(=O)N[C@@H](C)C(=O)N[C@@H](CC(C)C)C(=O)N[C@@H](CCCCN)C(=O)N[C@@H](CCC(=O)O)C(=O)N[C@@H](CCCCN)C(=O)N[C@H](C(=O)N[C@@H](C)C(=O)N[C@@H](C)C(=O)N[C@@H](CC(C)C)C(=O)N[C@@H](CCCCN)C(=O)N[C@@H](CCC(=O)O)C(=O)N[C@@H](CCCCN)C(=O)N[C@H](C(=O)N[C@@H](C)C(=O)N[C@@H](C)C(=O)N[C@@H](CC(C)C)C(=O)N[C@@H](CCCCN)C(=O)N[C@@H](CCC(=O)O)C(=O)NCC(=O)N[C@@H](Cc1c[nH]c2ccccc12)C(N)=O)[C@@H](C)CC)[C@@H](C)CC
notes: designed coiled-coil zipper peptide K; printed as Ac-C(SL)-(KIAALKE)3-GW-NH2, the repeat written out three times; degree of spin labelling around 80%; also called K-peptide, spin labelled at the N-terminus; Cys-K
B3: K-SL (peptide)
peptide: Ac-KIAALKEKIAALKEKIAALKEGWC(MTSL)-NH2
SMILES: CC[C@H](C)[C@H](NC(=O)[C@H](CCCCN)NC(C)=O)C(=O)N[C@@H](C)C(=O)N[C@@H](C)C(=O)N[C@@H](CC(C)C)C(=O)N[C@@H](CCCCN)C(=O)N[C@@H](CCC(=O)O)C(=O)N[C@@H](CCCCN)C(=O)N[C@H](C(=O)N[C@@H](C)C(=O)N[C@@H](C)C(=O)N[C@@H](CC(C)C)C(=O)N[C@@H](CCCCN)C(=O)N[C@@H](CCC(=O)O)C(=O)N[C@@H](CCCCN)C(=O)N[C@H](C(=O)N[C@@H](C)C(=O)N[C@@H](C)C(=O)N[C@@H](CC(C)C)C(=O)N[C@@H](CCCCN)C(=O)N[C@@H](CCC(=O)O)C(=O)NCC(=O)N[C@@H](Cc1c[nH]c2ccccc12)C(=O)N[C@@H](CSSCC1=CC(C)(C)N([O])C1(C)C)C(N)=O)[C@@H](C)CC)[C@@H](C)CC
notes: designed coiled-coil zipper peptide K; printed as Ac-(KIAALKE)3-GWC(SL)-NH2, the repeat written out three times; degree of spin labelling around 70%; also called K-peptide, spin labelled at the C-terminus
B4: E (peptide)
peptide: Ac-EIAALEKEIAALEKEIAALEKGY-NH2
notes: designed coiled-coil zipper peptide E; printed as Ac-(EIAALEK)3-GY-NH2, the repeat written out three times; unlabelled peptide added to K-SL or SL-K in the room-temperature cw-EPR; the details of these samples are in S1 Text; also called E-peptide; peptide E; source: synthetic peptide
B5: E-SL (peptide)
peptide: Ac-EIAALEKEIAALEKEIAALEKGYC(MTSL)-NH2
SMILES: CC[C@H](C)[C@H](NC(=O)[C@H](CCC(=O)O)NC(C)=O)C(=O)N[C@@H](C)C(=O)N[C@@H](C)C(=O)N[C@@H](CC(C)C)C(=O)N[C@@H](CCC(=O)O)C(=O)N[C@@H](CCCCN)C(=O)N[C@@H](CCC(=O)O)C(=O)N[C@H](C(=O)N[C@@H](C)C(=O)N[C@@H](C)C(=O)N[C@@H](CC(C)C)C(=O)N[C@@H](CCC(=O)O)C(=O)N[C@@H](CCCCN)C(=O)N[C@@H](CCC(=O)O)C(=O)N[C@H](C(=O)N[C@@H](C)C(=O)N[C@@H](C)C(=O)N[C@@H](CC(C)C)C(=O)N[C@@H](CCC(=O)O)C(=O)N[C@@H](CCCCN)C(=O)NCC(=O)N[C@@H](Cc1ccc(O)cc1)C(=O)N[C@@H](CSSCC1=CC(C)(C)N([O])C1(C)C)C(N)=O)[C@@H](C)CC)[C@@H](C)CC
notes: designed coiled-coil zipper peptide E; printed as Ac-(EIAALEK)3-GYC(SL)-NH2, the repeat written out three times; degree of spin labelling around 80%; also called E-peptide, spin labelled at the C-terminus; E-Cys

Legend:
E-SL = biological target: B5; test: continuous-wave EPR at room temperature; solution; rotation-correlation time of the spin-labelled peptide with and without the unlabelled partner; described in S1 Text; conditions: both partners purified
[1] = biological target: the molecule itself; test: DEER (double electron-electron resonance); frozen solution, 40 K, 9.7 GHz; PBS with 20% (wt) glycerol; total peptide 0.3 mM, mixtures equimolar; same samples as for cw-EPR; Tikhonov regularization
[2] = biological target: the molecule itself; test: continuous-wave EPR of frozen solution; 120 K, 9.7 GHz; PBS with 20% (wt) glycerol; total peptide 0.3 mM, mixtures equimolar; line broadening against free MTSL, distances from simulation of the spectra
K-SL [3] = biological target: B3; test: continuous-wave EPR at room temperature; solution; rotation-correlation time of the spin-labelled peptide with and without the unlabelled partner; described in S1 Text; conditions: both partners purified
SL-K [4] = biological target: B2; test: as above; conditions: both partners purified
SL-K [5] = biological target: B2; test: DEER (double electron-electron resonance); frozen solution, 40 K, 9.7 GHz; PBS with 20% (wt) glycerol; total peptide 0.3 mM, mixtures equimolar; same samples as for cw-EPR; Tikhonov regularization; conditions: both partners purified
K-SL [6] = biological target: B3; test: continuous-wave EPR of frozen solution; 120 K, 9.7 GHz; PBS with 20% (wt) glycerol; total peptide 0.3 mM, mixtures equimolar; line broadening against free MTSL, distances from simulation of the spectra; conditions: both partners purified

Binder: B1
binding result (E-SL): binds

Binder: B2
binding result [1]: binds

Binder: B3
binding result [2]: binds

Binder: B4
binding result (K-SL [3]): binds
binding result (SL-K [4]): binds

Binder: B5
binding result (SL-K [5]): binds
binding result (K-SL [6]): binds
